# According to the Human Domainome abundance scans (Beltran et al. 2025):
# ± gives the uncertainty stated by the source.
# B1: Zinc finger homeobox protein 4, residues 2183 to 2238; numbered along this chain, Q86UP3 (parent)
# chain: SSRTRFTDYQLRVLQDFFDTNAYPKDDEIEQLSTVLNLPTRVIVVWFQNARQKARK
# Variants of: B1
# Experiment: abundance fitness (aPCA) (normalised: wild type 0, dead -1); higher = more abundant; growth selection in yeast, the domain comes from the species named
# Conditions: Homo sapiens
row,Variant,abundance fitness
1,SSRTRFTDYQLRVLQDFFDTNAYPKDDEIEQLSTVLNLPTRVIVVWFQNARQKARC,-0.27 ± 0.27
2,SSRTRFTDYQLRVLQDFFDTNAYPKDDEIEQLSTVLNLPTRVIVVWFQNARQKARE,-0.547 ± 0.29
3,SSRTRFTDYQLRVLQDFFDTNAYPKDDEIEQLSTVLNLPTRVIVVWFQNARQKARH,-0.012 ± 0.23
4,SSRTRFTDYQLRVLQDFFDTNAYPKDDEIEQLSTVLNLPTRVIVVWFQNARQKARD,-0.06 ± 0.23
5,SSRTRFTDYQLRVLQDFFDTNAYPKDDEIEQLSTVLNLPTRVIVVWFQNARQKARG,-0.038 ± 0.19
6,SSRTRFTDYQLRVLQDFFDTNAYPKDDEIEQLSTVLNLPTRVIVVWFQNARQKRRK,-0.179 ± 0.1
7,SSRTRFTDYQLRVLQDFFDTNAYPKDDEIEQLSTVLNLPTRVIVVWFQNARQKGRK,-0.06 ± 0.12
8,SSRTRFTDYQLRVLQDFFDTNAYPKDDEIEQLSTVLNLPTRVIVVWFQNARQKQRK,0.01 ± 0.17
9,SSRTRFTDYQLRVLQDFFDTNAYPKDDEIEQLSTVLNLPTRVIVVWFQNARQKWRK,-0.211 ± 0.18
10,SSRTRFTDYQLRVLQDFFDTNAYPKDDEIEQLSTVLNLPTRVIVVWFQNARQKFRK,-0.06 ± 0.12
11,SSRTRFTDYQLRVLQDFFDTNAYPKDDEIEQLSTVLNLPTRVIVVWFQNARQKERK,-0.013 ± 0.23
12,SSRTRFTDYQLRVLQDFFDTNAYPKDDEIEQLSTVLNLPTRVIVVWFQNARQKHRK,-0.039 ± 0.094
13,SSRTRFTDYQLRVLQDFFDTNAYPKDDEIEQLSTVLNLPTRVIVVWFQNARQKMRK,-0.013 ± 0.2
14,SSRTRFTDYQLRVLQDFFDTNAYPKDDEIEQLSTVLNLPTRVIVVWFQNARQKDRK,-0.068 ± 0.12
15,SSRTRFTDYQLRVLQDFFDTNAYPKDDEIEQLSTVLNLPTRVIVVWFQNARQKVRK,-0.053 ± 0.1
16,SSRTRFTDYQLRVLQDFFDTNAYPKDDEIEQLSTVLNLPTRVIVVWFQNARQKTRK,-0.1 ± 0.097
17,SSRTRFTDYQLRVLQDFFDTNAYPKDDEIEQLSTVLNLPTRVIVVWFQNARQKCRK,0.062 ± 0.17
18,SSRTRFTDYQLRVLQDFFDTNAYPKDDEIEQLSTVLNLPTRVIVVWFQNARQKKRK,-0.232 ± 0.23
19,SSRTRFTDYQLRVLQDFFDTNAYPKDDEIEQLSTVLNLPTRVIVVWFQNARQKLRK,-0.079 ± 0.093
20,SSRTRFTDYQLRVLQDFFDTNAYPKDDEIEQLSTVLNLPTRVIVVWFQNARQKYRK,-0.277 ± 0.15
21,SSRTRFTDYQLRVLQDFFDTNAYPKDDEIEQLSTVLNLPTRVIVVWFQNARQKNRK,0.081 ± 0.12
22,SSRTRFTDYQLRVLQDFFDTNAYPKDDEIEQLSTVLNLPTRVIVVWFQNARQKIRK,-0.096 ± 0.13
23,SSRTRFTDYQLRVLQDFFDTNAYPKDDEIEQLSTVLNLPTRVIVVWFQNARQKPRK,-0.073 ± 0.088
24,SSRTRFTDYQLRVLQDFFDTNAYPKDDEIEQLSTVLNLPTRVIVVWFQNAQQKARK,-0.251 ± 0.24

row,Variant,abundance fitness
1,SSRTRFTDYQLRVLQDFFDTNAYPKDDEIEQLSTVLNLPTRVIVVWFQNAWQKARK,-0.194 ± 0.13
2,SSRTRFTDYQLRVLQDFFDTNAYPKDDEIEQLSTVLNLPTRVIVVWFQNAVQKARK,-0.043 ± 0.13
3,SSRTRFTDYQLRVLQDFFDTNAYPKDDEIEQLSTVLNLPTRVIVVWFQNAPQKARK,-0.898 ± 0.24
4,SSRTRFTDYQLRVLQDFFDTNAYPKDDEIEQLSTVLNLPTRVIVVWFQNAIQKARK,-0.235 ± 0.2
5,SSRTRFTDYQLRVLQDFFDTNAYPKDDEIEQLSTVLNLPTRVIVVWFQNATQKARK,-0.608 ± 0.24
6,SSRTRFTDYQLRVLQDFFDTNAYPKDDEIEQLSTVLNLPTRVIVVWFQNAKQKARK,0.035 ± 0.26
7,SSRTRFTDYQLRVLQDFFDTNAYPKDDEIEQLSTVLNLPTRVIVVWFQNAGQKARK,-0.317 ± 0.1
8,SSRTRFTDYQLRVLQDFFDTNAYPKDDEIEQLSTVLNLPTRVIVVWFQNAAQKARK,-0.24 ± 0.13
9,SSRTRFTDYQLRVLQDFFDTNAYPKDDEIEQLSTVLNLPTRVIVVWFQNAEQKARK,-0.144 ± 0.27
10,SSRTRFTDYQLRVLQDFFDTNAYPKDDEIEQLSTVLNLPTRVIVVWFQNAFQKARK,-0.221 ± 0.23
11,SSRTRFTDYQLRVLQDFFDTNAYPKDDEIEQLSTVLNLPTRVIVVWFQNAYQKARK,-0.175 ± 0.31
12,SSRTRFTDYQLRVLQDFFDTNAYPKDDEIEQLSTVLNLPTRVIVVWFQNANQKARK,-0.488 ± 0.34
13,SSRTRFTDYQLRVLQDFFDTNAYPKDDEIEQLSTVLNLPTRVIVVWFQNAMQKARK,-0.219 ± 0.23
14,SSRTRFTDYQLRVLQDFFDTNAYPKDDEIEQLSTVLNLPTRVIVVWFQNACQKARK,-0.128 ± 0.24
15,SSRTRFTDYQLRVLQDFFDTNAYPKDDEIEQLSTVLNLPTRVIVVWFQNADQKARK,-0.304 ± 0.26
16,SSRTRFTDYQLRVLQDFFDTNAYPKDDEIEQLSTVLNLPTRVIVVWFQNAHQKARK,-0.462 ± 0.25
17,SSRTRFTDYQLRVLQDFFDTNAYPKDDEIEQLSTVLNLPTRVIVVWFQNARSKARK,-0.275 ± 0.16
18,SSRTRFTDYQLRVLQDFFDTNAYPKDDEIEQLSTVLNLPTRVIVVWFQNARMKARK,-0.308 ± 0.39
19,SSRTRFTDYQLRVLQDFFDTNAYPKDDEIEQLSTVLNLPTRVIVVWFQNARNKARK,-0.166 ± 0.2
20,SSRTRFTDYQLRVLQDFFDTNAYPKDDEIEQLSTVLNLPTRVIVVWFQNAREKARK,0.068 ± 0.32
21,SSRTRFTDYQLRVLQDFFDTNAYPKDDEIEQLSTVLNLPTRVIVVWFQNARYKARK,-0.256 ± 0.28
22,SSRTRFTDYQLRVLQDFFDTNAYPKDDEIEQLSTVLNLPTRVIVVWFQNARRKARK,-0.401 ± 0.19
23,SSRTRFTDYQLRVLQDFFDTNAYPKDDEIEQLSTVLNLPTRVIVVWFQNARAKARK,-0.418 ± 0.24
